B1: SH3 domain-binding protein 2 (Mus musculus), Q06649 (parent)
chain: MAAEEMQWPVPMKAIGAQNLLTMPGGVAKAGYLHKKGGTQLQLLKWPLRFVIIHKRCIYYFKSSTSASPQGAFSLSGYNRVMRAAEETTSNNVFPFKIIHISKKHRTWFFSASSEDERKSWMAFVRREIGHFHEKKELPLDTSDSSSDTDSFYGAVERPIDISLSSYPMDNEDYEHEDEDDSYLEPDSPGPMKLEDALTYPPAYPPPPVPVPRKPAFSDLPRAHSFTSKSPSPLLPPPPPKRGLPDTGSAPEDAKDALGLRRVEPGLRVPATPRRMSDPPMSNVPTVPNLRKHPCFRDSVNPGLEPWTPGHGTSSVSSSTTMAVATSRNCDKLKSFHLSSRGPPTSEPPPVPANKPKFLKIAEEPSPREAAKFAPVPPVAPRPPVQKMPMPEATVRPAVLPRPENTPLPHLQRSPPDGQSFRGFSFEKARQPSQADTGEEDSDEDYEKVPLPNSVFVNTTESCEVERLFKATDPRGEPQDGLYCIRNSSTKSGKVLVVWDESSNKVRNYRIFEKDSKFYLEGEVLFASVGSMVEHYHTHVLPSHQSLLLRHPYGYAGPR

Variants of: B1
Settings: with rn146_human RNF146, Q9NTX7
Chain of rn146_human RNF146, Q9NTX7 (Q9NTX7 whole entry): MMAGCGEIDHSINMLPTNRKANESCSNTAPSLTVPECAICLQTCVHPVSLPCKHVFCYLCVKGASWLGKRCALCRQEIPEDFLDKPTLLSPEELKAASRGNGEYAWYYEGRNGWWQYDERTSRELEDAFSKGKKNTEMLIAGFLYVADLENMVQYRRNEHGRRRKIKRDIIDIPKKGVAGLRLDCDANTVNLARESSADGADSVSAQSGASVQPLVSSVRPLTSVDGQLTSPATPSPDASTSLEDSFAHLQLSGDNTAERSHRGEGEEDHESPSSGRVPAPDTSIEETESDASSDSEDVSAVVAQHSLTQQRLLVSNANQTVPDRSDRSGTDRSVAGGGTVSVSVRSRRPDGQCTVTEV

| effect of a mutation on the interaction | Variant |
| --- | --- |
| decreasing interaction | MAAEEMQWPVPMKAIGAQNLLTMPGGVAKAGYLHKKGGTQLQLLKWPLRFVIIHKRCIYYFKSSTSASPQGAFSLSGYNRVMRAAEETTSNNVFPFKIIHISKKHRTWFFSASSEDERKSWMAFVRREIGHFHEKKELPLDTSDSSSDTDSFYGAVERPIDISLSSYPMDNEDYEHEDEDDSYLEPDSPGPMKLEDALTYPPAYPPPPVPVPRKPAFSDLPRAHSFTSKSPSPLLPPPPPKRGLPDTGSAPEDAKDALGLRRVEPGLRVPATPRRMSDPPMSNVPTVPNLRKHPCFRDSVNPGLEPWTPGHGTSSVSSSTTMAVATSRNCDKLKSFHLSSRGPPTSEPPPVPANKPKFLKIAEEPSPREAAKFAPVPPVAPRPPVQKMPMPEATVRPAVLPRPENTPLPHLQQSPPDGQSFRGFSFEKARQPSQADTGEEDSDEDYEKVPLPNSVFVNTTESCEVERLFKATDPRGEPQDGLYCIRNSSTKSGKVLVVWDESSNKVRNYRIFEKDSKFYLEGEVLFASVGSMVEHYHTHVLPSHQSLLLRHPYGYAGPR [R413Q] |

Variants of: B1
Settings: with tnks1_human TNKS

| effect of a mutation on the interaction | Variant |
| --- | --- |
| disrupting interaction | MAAEEMQWPVPMKAIGAQNLLTMPGGVAKAGYLHKKGGTQLQLLKWPLRFVIIHKRCIYYFKSSTSASPQGAFSLSGYNRVMRAAEETTSNNVFPFKIIHISKKHRTWFFSASSEDERKSWMAFVRREIGHFHEKKELPLDTSDSSSDTDSFYGAVERPIDISLSSYPMDNEDYEHEDEDDSYLEPDSPGPMKLEDALTYPPAYPPPPVPVPRKPAFSDLPRAHSFTSKSPSPLLPPPPPKRGLPDTGSAPEDAKDALGLRRVEPGLRVPATPRRMSDPPMSNVPTVPNLRKHPCFRDSVNPGLEPWTPGHGTSSVSSSTTMAVATSRNCDKLKSFHLSSRGPPTSEPPPVPANKPKFLKIAEEPSPREAAKFAPVPPVAPRPPVQKMPMPEATVRPAVLPRPENTPLPHLQQSPPDGQSFRGFSFEKARQPSQADTGEEDSDEDYEKVPLPNSVFVNTTESCEVERLFKATDPRGEPQDGLYCIRNSSTKSGKVLVVWDESSNKVRNYRIFEKDSKFYLEGEVLFASVGSMVEHYHTHVLPSHQSLLLRHPYGYAGPR [R413Q] |
